Changes are numbered by the printed parent chain.
T1: human PAC1 receptor (human, UniProt P41586 21-468)
T1 sequence: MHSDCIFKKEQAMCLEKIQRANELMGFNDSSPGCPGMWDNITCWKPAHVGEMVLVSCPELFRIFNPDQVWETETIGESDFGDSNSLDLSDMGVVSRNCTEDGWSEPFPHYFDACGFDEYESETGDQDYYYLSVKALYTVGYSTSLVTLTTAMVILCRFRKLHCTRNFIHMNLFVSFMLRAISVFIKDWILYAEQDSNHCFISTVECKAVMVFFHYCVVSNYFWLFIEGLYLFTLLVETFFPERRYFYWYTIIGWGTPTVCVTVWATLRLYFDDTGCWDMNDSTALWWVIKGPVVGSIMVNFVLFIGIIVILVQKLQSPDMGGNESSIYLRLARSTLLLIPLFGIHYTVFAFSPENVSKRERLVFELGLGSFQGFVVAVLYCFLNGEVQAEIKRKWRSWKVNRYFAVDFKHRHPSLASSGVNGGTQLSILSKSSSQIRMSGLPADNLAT

B1: iPS:327690 (bispecific antibody, human IgG1, kappa, lambda, N297G)
light 1: not shown
heavy 1: not shown
light 2: QSVLTQPPSVSAAPGQKVTISCSGSSSNIGNNYVSWYQQLPGTAPKLLIYDNNKRPSGIPDRFSGSKSGTSTTLGITGLQTGDEADYYCGTWDSRLSAVVFGGGTKLTVLGQPKANPTVTLFPPSSEELQANKATLVCLISDFYPGAVTVAWKADGSPVKAGVETTKPSKQSNNKYAAKSYLSLTPEQWKSHRSYSCQVTHEGSTVEKTVAPTECS
heavy 2: QVQLVESGGGVVQPGRSLRLSCAASGFTFSSFGMHWVRQAPGKGLEWVAVISFDGSIKYSVDSVKGRFTISRDNSKNTLFLQMNSLRAEDTAVYYCARDRLNYYESSGYYHYKYYGMAVWGQGTTVTVSSASTKGPSVFPLAPSSKSTSGGTAALGCLVKDYFPEPVTVSWNSGALTSGVHTFPAVLQSSGLYSLESVVTVPSSSLGTQTYICNVNHKPSNTKVDKKVEPKSCDKTHTCPPCPAPELLGGPSVFLFPPKPKDTLMISRTPEVTCVVVDVSHEDPEVKFNWYVDGVEVHNAKTKPCEEQYGSTYRCVSVLTVLHQDWLNGKEYKCKVSNKALPAPIEKTISKAKGQPREPQVYTLPPSRKEMTKNQVSLTCLVKGFYPSDIAVEWESNGQPENNYKTTPPVLKSDGSFFLYSKLTVDKSRWQQGNVFSCSVMHEALHNHYTQKSLSLSPGK
B2: iPS:327687 (bispecific antibody, human IgG1, kappa, N297G)
light 1: DIQLTQSPSFLSASVGDRVTITCRASQSIGRSLHWYQQKPGKAPKLLIKYASQSLSGVPSRFSGSGSGTEFTLTISSLQPEDFATYYCHQSSRLPFTFGPGTKVDIKRTVAAPSVFIFPPSDEQLKSGTASVVCLLNNFYPREAKVQWKVDNALQSGNSQESVTEQDSKDSTYSLESTLTLSKADYEKHKVYACEVTHQGLSSPVTKSFNRGEC
heavy 1: not shown
light 2: EIVLTQSPGTLSLSPGERATLSCRASQSVSSGYLTWYQQKPGQAPRLLIYGASSRATGIPDRFSGSGSGTDFTLTISRLEPEDFAVYYCQQYGNSLSRFGQGTKLEIKRTVAAPSVFIFPPSDEQLKSGTASVVCLLNNFYPREAKVQWKVDNALQSGNSQESVTEQDSKDSTYSLKSTLTLSKADYEKHKVYACEVTHQGLSSPVTKSFNRGEC
heavy 2: not shown
B3: iPS:327691 (bispecific antibody, human IgG1, kappa, lambda, N297G)
light 1: B2 light 1
heavy 1: not shown
light 2: B1 light 2
heavy 2: B1 heavy 2
B4: iPS:327688 (bispecific antibody, human IgG1, kappa, N297G)
light 1: EIVLTQSPATLSLSPGERATLSCRASQSVGRSLHWYQQKPGQAPRLLIKYASQSLSGIPARFSGSGSGTDFTLTISSLEPEDFAVYYCHQSSRLPFTFGPGTKVDIKRTVAAPSVFIFPPSDEQLKSGTASVVCLLNNFYPREAKVQWKVDNALQSGNSQESVTEQDSKDSTYSLESTLTLSKADYEKHKVYACEVTHQGLSSPVTKSFNRGEC
heavy 1: not shown
light 2: B2 light 2
heavy 2: not shown
B5: iPS:327693 (bispecific antibody, human IgG1, kappa, lambda, N297G)
light 1: B4 light 1
heavy 1: not shown
light 2: B1 light 2
heavy 2: B1 heavy 2
B6: iPS:327694 (bispecific antibody, human IgG1, kappa, lambda, N297G)
light 1: DIQMTQSPSSLSASVGDRITITCRASQSISRYLNWYQQKPGKAPKLLIYAASSLQSGIPSRFSGSGSGTDFTLTINSLQPEDFATYFCQQSYSPPFTFGEGTKVDIKRTVAAPSVFIFPPSDEQLKSGTASVVCLLNNFYPREAKVQWKVDNALQSGNSQESVTEQDSKDSTYSLESTLTLSKADYEKHKVYACEVTHQGLSSPVTKSFNRGEC
heavy 1: not shown
light 2: B1 light 2 with G103K
heavy 2: B1 heavy 2 with G44E
B7: iPS:327705 (bispecific antibody, human IgG1, kappa, lambda, N297G)
light 1: B2 light 1
heavy 1: not shown
light 2: B1 light 2 with T72A
heavy 2: B1 heavy 2 with E105D
B8: iPS:327696 (bispecific antibody, human IgG1, kappa, lambda, N297G)
light 1: not shown
heavy 1: not shown
light 2: B1 light 2 with G103K
heavy 2: B1 heavy 2 with G44E
B9: iPS:327706 (bispecific antibody, human IgG1, kappa, lambda, N297G)
light 1: B4 light 1
heavy 1: not shown
light 2: B1 light 2 with T72A
heavy 2: B1 heavy 2 with E105D
B10: iPS:327697 (bispecific antibody, human IgG1, kappa, lambda, N297G)
light 1: B2 light 1 with P100E
heavy 1: not shown
light 2: B1 light 2 with G103K
heavy 2: B1 heavy 2 with G44E
B11: iPS:326634 (bispecific antibody, human IgG2, kappa, lambda)
light 1: B2 light 1
heavy 1: QVQLVESGAEVVKPGASVKVSCKASGFTFSRFAMHWVRQAPGQGLEWMGVISYDGGNKYYAESVKGRVTMTRDTSTSTLYMELSSLRSEDTAVYYCARGYDVLTGYPDYWGQGTLVTVSSASTKGPSVFPLAPCSRSTSESTAALGCLVKDYFPEPVTVSWNSGALTSGVHTFPAVLQSSGLYSLKSVVTVPSSNFGTQTYTCNVDHKPSNTKVDKTVERKCCVECPPCPAPPVAGPSVFLFPPKPKDTLMISRTPEVTCVVVDVSHEDPEVQFNWYVDGVEVHNAKTKPREEQFNSTFRVVSVLTVVHQDWLNGKEYKCKVSNKGLPAPIEKTISKTKGQPREPQVYTLPPSREEMTKNQVSLTCLVDGFYPSDIAVEWESNGQPENNYDTTPPMLDSDGSFFLYSDLTVDKSRWQQGNVFSCSVMHEALHNHYTQKSLSLSPGK
light 2: not shown
heavy 2: not shown

The binders below were run against human CGRP receptor (human, UniProt Q16602 23-461; O60894 27-148) (assay: cell-based or functional assay).
Chain of human CGRP receptor (Q16602 23-461 limits assumed, chain 1 of 2): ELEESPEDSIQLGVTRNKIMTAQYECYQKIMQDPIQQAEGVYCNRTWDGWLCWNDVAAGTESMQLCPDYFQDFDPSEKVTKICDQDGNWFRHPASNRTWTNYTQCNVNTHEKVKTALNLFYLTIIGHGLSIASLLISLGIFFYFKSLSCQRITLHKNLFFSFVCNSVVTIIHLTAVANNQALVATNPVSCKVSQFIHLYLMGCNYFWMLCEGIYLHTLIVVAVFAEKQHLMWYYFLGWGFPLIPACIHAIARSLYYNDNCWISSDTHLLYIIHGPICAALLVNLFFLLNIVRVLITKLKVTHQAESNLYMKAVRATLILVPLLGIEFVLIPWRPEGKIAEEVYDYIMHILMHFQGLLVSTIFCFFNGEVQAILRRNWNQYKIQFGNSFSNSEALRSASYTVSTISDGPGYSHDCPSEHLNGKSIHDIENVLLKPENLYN
Chain of human CGRP receptor (O60894 27-148 limits assumed, chain 2 of 2): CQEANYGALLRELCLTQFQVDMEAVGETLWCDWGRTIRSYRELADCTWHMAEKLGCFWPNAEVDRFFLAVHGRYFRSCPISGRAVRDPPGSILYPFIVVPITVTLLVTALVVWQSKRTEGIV

Point of comparison: B6, “% inhibition of human CGRPR” value 87%. Against it:
- B1 — lower, 80%
- B2 — higher, 91%
- B3 — lower, 73%
- B4 — higher, 89%
- B5 — lower, 76%
- B7 — higher, 88%
- B8 — the same, 87%
- B9 — the same, 87%
- B10 — higher, 88%
- B11 — lower, 66%

These binders were tested against T1, human PAC1 receptor (assay: cell-based or functional assay).

Point of comparison: B8, “% inhibition of human PAC1” value 10%. Against it:
- B1 — higher, 50%
- B2 — higher, 62%
- B3 — higher, 25%
- B4 — higher, 103%
- B5 — higher, 82%
- B6 — higher, 75%
- B7 — higher, 56%
- B9 — higher, 103%
- B10 — higher, 39%
- B11 — higher, 43%

From patent US20170306033A1 (Amgen, published 2017)
